Measurements reported in patent CN116472284A.

Experiments:
[1] = target: SARS-CoV-2 spike ectodomain, prefusion-stabilised trimer (刺突 S2P) (SARS-CoV-2)
[2] = target: SARS-CoV-2 spike ectodomain, prefusion-stabilised trimer (刺突 S2P) (SARS-CoV-2); assay: SPR, captured spike S2P
[3] = target: SARS-CoV-2 spike ectodomain, prefusion-stabilised trimer (刺突 S2P) (SARS-CoV-2); assay: SPR, captured spike S2P, no measurable dissociation in ten minutes
[4] = target: SARS-CoV-2 spike ectodomain, prefusion-stabilised trimer (刺突 S2P) (SARS-CoV-2); assay: SPR, captured spike S2P, biphasic dissociation, slow phase kd2
[5] = target: SARS-CoV-2 spike ectodomain, prefusion-stabilised trimer (刺突 S2P) (SARS-CoV-2); assay: SPR, captured spike S2P, biphasic dissociation, fast phase kd1
[6] = target: SARS-CoV-2 spike on live SARS-CoV-2 virus (isolate France/IDF0372/2020) (SARS-CoV-2) (UniProt P0DTC2); assay: cell-based or functional assay

Substance: mNb6 (affinity-matured Nb6, I27Y and P105Y) (VHH)
- EC50 [1]: 0.056 nM

Substance: mNb6-tri (trivalent mNb6 with 20 amino acid linkers) (VHH)
- Kd [2]: < 0.001 nM
- dissociation half-life t1/2 [2]: > 8 天 (days)
- koff [3]: < 1e-06 s⁻¹

Substance: Nb6-tri (trivalent Nb6 with two 20 amino acid linkers) (VHH)
- koff [4]: < 1e-06 s⁻¹
- koff [5]: 0.029 s⁻¹
- fold gain in KD against monovalent Nb6 [2]: > 200000 fold
- mean IC50, plaque reduction neutralisation of live SARS-CoV-2 on VeroE6 cells [6]: 0.16 nM
